Laboratory results reported in article PMC4034690.
Blank lines part the entries; values can stand above or below the substance they belong to.

Legend:
[1] = target: γ-TuSC^Spc98Δ1–156 [S. cerevisiae]; assay: GST pull-down, immunoblot anti-Tub4 (bound Tub4), Li-cor quantification; conditions: 300 nM Spc110 1-220; read off a plot; scale: %
[2] = target: γ-TuSC^Spc98Δ1–156 [S. cerevisiae]; assay: GST pull-down, immunoblot anti-His (bound Spc97/Spc98), Li-cor quantification; conditions: 300 nM Spc110 1-220; read off a plot; scale: %
[3] = target: γ-tubulin small complex (γ-TuSC) [S. cerevisiae]; assay: GST pull-down, immunoblot anti-Tub4 (bound Tub4), Li-cor quantification; conditions: 300 nM Spc110 1-220; read off a plot
[4] = target: γ-tubulin small complex (γ-TuSC) [S. cerevisiae]; assay: GST pull-down, immunoblot anti-His (bound Spc97, Spc98), Li-cor quantification; conditions: 300 nM Spc110 1-220; read off a plot
[5] = target: γ-TuSC^Spc98Δ1–156, P53378;P38863;P53540; assay: GST pull-down, immunoblot anti-Tub4 (bound Tub4), Li-cor quantification; conditions: 300 nM Spc110 1-220; parent: est. 42; read off a plot; scale: %
[6] = target: γ-tubulin small complex (γ-TuSC), P53378;P38863;P53540; assay: as above; conditions: 300 nM Spc110 1-220; read off a plot
[7] = target: γ-TuSC^Spc98Δ1–156, P53378;P38863;P53540; assay: GST pull-down, immunoblot anti-His (bound Spc97/Spc98), Li-cor quantification; conditions: 300 nM Spc110 1-220; parent: est. 6; read off a plot; scale: %
[8] = target: γ-tubulin small complex (γ-TuSC), P53378;P38863;P53540; assay: as above; conditions: 300 nM Spc110 1-220; read off a plot
[9] = target: GST-Spc110^1–220-2D (S. cerevisiae) (UniProt P32380)
[10] = target: GST-Spc110^1–220-3D (S. cerevisiae) (UniProt P32380)
[11] = target: GST-Spc110^1–220-5D (S. cerevisiae) (UniProt P32380)
[12] = target: γ-tubulin small complex (γ-TuSC) (S. cerevisiae) (UniProt P53378); assay: SEC; as a3 (TB150, Superose 6 10/300) but with the concentrations of γ-TuSC and Spc110^1–220 variants doubled (Figure 2—figure supplement 2A)
[13] = target: γ-tubulin small complex (γ-TuSC) (S. cerevisiae) (UniProt P53378); assay: SEC; γ-TuSC mixed with GST-Spc110^1–220 variant in 1:4 molar ratio (2.3:9.3) in TB150 buffer, 1 hr at 4°C, Superdex 200 10/300 or Superose 6 10/300; shift of γ-TuSC to the void volume; fractions by SDS-PAGE and silver staining; void-volume fraction also by negative-stain electron microscopy

response [1]: 42 | response [2]: 6
Substance: GST-Spc110^1–220 (wild type, from E. coli, non-phosphorylated) mutant S36D; S60D; T64D; T68D; S91D [S. cerevisiae] / γ-TuSC^Spc98Δ1–156 [S. cerevisiae] chain 1 S36D, chain 1 S60D, chain 1 T64D, chain 1 T68D, chain 1 S91D

response [3]: 11000 RU | response [4]: 8300 RU
Substance: GST-Spc110^1–220 (wild type, from E. coli, non-phosphorylated) mutant S36D; S60D; T64D; T68D; S91D [S. cerevisiae] / γ-tubulin small complex (γ-TuSC) [S. cerevisiae] chain 1 S36D, chain 1 S60D, chain 1 T64D, chain 1 T68D, chain 1 S91D

response [3]: 3300 RU | response [4]: 3300 RU
Substance: GST-Spc110^1–220 (wild type, from E. coli, non-phosphorylated) mutant S36D; S91D [S. cerevisiae] / γ-tubulin small complex (γ-TuSC) [S. cerevisiae] chain 1 S36D, chain 1 S91D

response [3]: 10000 RU | response [4]: 7400 RU
Substance: GST-Spc110^1–220 (wild type, from E. coli, non-phosphorylated) mutant S60D; T64D; T68D [S. cerevisiae] / γ-tubulin small complex (γ-TuSC) [S. cerevisiae] chain 1 S60D, chain 1 T64D, chain 1 T68D

response [5]: 34 | percent of parent [6]: 49% | response [7]: 3 | percent of parent [8]: 45%
Substance: GST-Spc110^1–220-5D (from UniProt P32380) CM1-QA

response [5]: 32 | percent of parent [6]: 40% | response [7]: 9 | percent of parent [8]: 16%
Substance: GST-Spc110^1–220-5D (from UniProt P32380) T18D; CM1-QA

in vitro MT nucleation activity (MTs/field normalised to buffer only); 3 μM γ-TuSC pre-incubated with 15 μM GST-Spc110^1–220 variant; compared to the buffer control and γ-TuSC alone [9]: 3 fold | in vitro MT nucleation activity (MTs/field normalised to buffer only); 3 μM γ-TuSC pre-incubated with 15 μM GST-Spc110^1–220 variant; compared to the buffer control and γ-TuSC alone [10]: 3 fold | in vitro MT nucleation activity (MTs/field normalised to buffer only); 3 μM γ-TuSC pre-incubated with 15 μM GST-Spc110^1–220 variant; compared to the buffer control and γ-TuSC alone [11]: 3 fold | stoichiometry N [12]: 2 | stoichiometry N [13]: > 14
Substance: γ-tubulin small complex (γ-TuSC), P53378 1-473; P38863 1-823; P53540 1-846
